One molecule from US20050123549A1 (IMMUNOGEN, published 2005) can be followed below.

In test [1] the target is T1, Muc1 mucin carrying the CA6 sialoglycotope (human, UniProt P15941 24-1255, sialylated O-linked carbohydrate carrying the CA6 epitope; positions not stated).
T1 construct: whole, on cells; Target of DS6 on CA6-positive human cell lines (flow cytometry) and in their lysates (dot blots, immunoprecipitation); also called CA6 antigen; DS6 antigen
Put plainly: flow cytometry on ZR-75-1 cells, apparent Kd. How it is done:
(§1) Human cell lines were obtained from the American Type Culture Collection (ATCC) with the exception of OVCAR5 (Kearse et al., Int. J. Cancer 88(6):866-872 (2000)), OVCAR8 and IGROV1 cells (M. Seiden, Massachusetts General Hospital). All cells were grown in RPMI 1640 supplemented with 4 mM L-glutamine, 50 U/ml penicillin, 50 μg/ml streptomycin (Cambrex Bio Science, Rockland, Me.) and 10% v/v fetal bovine serum (Atlas Biologicals, Fort Collins, Colo.), referred hereafter as culture media. Cells were maintained in a 37° C., 5% CO₂ humidified incubator.
(§2) Cells ([…]) were incubated, on ice for 3-4 h, with serially diluted concentrations of the DS6 antibody prepared in FACS buffer (2% goat serum, RPMI) into 96-well plates. The cells were spun down in a table top centrifuge at 1500 rpm for 5 min at 4° C. After removing the media, the wells were then refilled with 150 μl of FACS buffer. The wash step was then repeated. FITC-labeled goat anti-mouse IgG (Jackson Immunoresearch) was diluted 1:100 to FACS buffer and incubated with the cells for 1 h on ice. The plate was covered in foil to prevent photobleaching of the signal. After two washes, the cells were fixed with 1% formaldehyde and analyzed on a flow cytometer.
In general terms: Flow cytometry measures light scatter and fluorescence of single cells or particles in a stream.

Test [2] addresses T1, Muc1 mucin carrying the CA6 …. Put plainly: flow cytometry on WISH cells, direct binding.
For test [3] the target is unchanged. Description: flow cytometry on T-47D cells, apparent Kd. How it is done: as §1, §2
The target is the same in test [4]. Description: flow cytometry on TOV-21G cells, apparent Kd.
Test [5] shares this target. Put plainly: flow cytometry on OVCAR5 cells, apparent Kd. How it is done: as §2
Test [6] has the same target. Description: flow cytometry on CAMA-1 cells, apparent Kd. How it is done: as §1, §2
Test [7] shares this target. Put plainly: flow cytometry on HeLa cells, apparent Kd.
Test [8] shares this target. Put plainly: flow cytometry on BT-20 cells, apparent Kd.
Test [9] shares this target. Description: flow cytometry on Caov-3 cells.
Test [10] has the same target. Description: flow cytometry on OVCAR5 cells, apparent Kd. How it is done:
as §1, §2
This is another data set of the same source.

Test [11] shares this target. Put plainly: flow cytometry on HeLa cells.
For test [12] the target is unchanged. Put plainly: flow cytometry on T98G cells, apparent Kd. How it is done:
as §2

Test [13] shares this target. Put plainly: flow cytometry on T-47D cells, apparent Kd. As for the experimental part: as §2
This is another data set of the same source.

For test [14] the target is unchanged. Description: flow cytometry on WISH cells, apparent Kd.
The target is the same in test [15]. Put plainly: flow cytometry on MDA-MB-468 cells, apparent Kd. As for the experimental part: as §1, §2
Test [16] shares this target. Put plainly: flow cytometry on SU.86.86 cells, apparent Kd. How it is done: as §2
The target is the same in test [17]. Put plainly: flow cytometry on Caov-3 cells, FITC anti-mouse IgG. As for the experimental part: The fluorescence of cell lines incubated with the DS6 primary antibody and FITC conjugated anti-mouse IgG(H+L) secondary antibodies was measured by flow cytometry.
as §2

Test [18] shares this target. Put plainly: flow cytometry on HPAC cells, apparent Kd. How it is done: as §2
For test [19] the target is unchanged. Put plainly: flow cytometry on PC-3 cells, apparent Kd. As for the experimental part: as §1, §2
The target is the same in test [20]. Put plainly: flow cytometry on BT-20 cells, apparent Kd. As for the experimental part: as §1, §2
The source holds these as a separate data set.

For test [21] the target is unchanged. Description: flow cytometry on MCF-7 cells, apparent Kd. How it is done:
as §1, §2

B1: murine DS6 anti-CA6 monoclonal antibody (antibody, IgG1, V domains shown)
VH: QAYLQQSGAELVRSGASVKMSCKASGYTFTSYNMHWVKQTPGQGLEWIGYIYPGNGATNYNQKFKGKATLTADPSSSTAYMQISSLTSEDSAVYFCARGDSVPFAYWGQGTLVTVSA
VL: QIVLTQSPAIMSASPGEKVTITCSAHSSVSFMHWFQQKPGTSPKLWIYSTSSLASGVPARFGGSGSGTSYSLTISRMEAEDAATYYCQQRSSFPLTFGAGTKLELKR
notes: Whole murine monoclonal IgG from the DS6 hybridoma (ATCC PTA-4449); the 3' heavy chain cloning primer was BamIgG1 and the light chain primer was kappa; also called DS6 antibody; muDS6
Regarding B1, the Kd came out at 4.3 nM in test [1]; 1.93 nM in test [2]; 3.42 nM in [3]; 0.307 nM in test [4]; 1.47 nM in test [5]; 2.33 nM in test [6]. For the same molecule, the Kd was 0.694 nM in test [7]; 0.914 nM in [8]; 2.02 nM in [9]; 1.47 nM in [10]; 0.62 nM in [11]; 0.177 nM in [12]. The Kd in test [13] was 3.42 nM; in test [14], 2.38 nM; in [15] it was 0.813 nM; in test [16], 1.04 nM; in [17], 1.85 nM; in [18] it was 23.5 nM. For the same molecule, the Kd in test [19] was determined as 0.136 nM; in test [20], 0.914 nM; in test [21], 2.89 nM.
